According to publication PMC2756588:

T1: Hof1, Q05080
T1 sequence (Q05080 590-669, looked up): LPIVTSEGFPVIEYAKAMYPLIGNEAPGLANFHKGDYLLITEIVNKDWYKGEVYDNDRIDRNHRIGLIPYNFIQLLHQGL

T2: Bzz1-1, P38822
T2 sequence (P38822 478-572, looked up): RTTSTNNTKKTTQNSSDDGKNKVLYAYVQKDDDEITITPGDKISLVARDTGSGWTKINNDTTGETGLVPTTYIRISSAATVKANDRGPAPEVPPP

T3: Hse1, P38753
T3 sequence (P38753 208-285, looked up): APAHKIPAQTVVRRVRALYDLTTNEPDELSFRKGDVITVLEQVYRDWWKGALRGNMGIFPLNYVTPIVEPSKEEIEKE

T4: Sla1-3, P32790
T4 sequence (P32790 344-424, looked up): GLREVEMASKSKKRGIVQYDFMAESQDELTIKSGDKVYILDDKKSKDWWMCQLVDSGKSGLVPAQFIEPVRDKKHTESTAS

T5: Bbc1, P47068
T5 sequence (P47068 1-78, looked up): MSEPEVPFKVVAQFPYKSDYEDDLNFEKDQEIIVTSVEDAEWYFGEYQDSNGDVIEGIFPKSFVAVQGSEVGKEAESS

T6: Sla1-2, P32790
T6 sequence (P32790 60-140, looked up): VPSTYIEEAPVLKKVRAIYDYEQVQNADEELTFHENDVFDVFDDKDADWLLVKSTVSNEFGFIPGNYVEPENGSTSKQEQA

T7: Lsb4, P32793
T7 sequence (P32793 402-468, looked up): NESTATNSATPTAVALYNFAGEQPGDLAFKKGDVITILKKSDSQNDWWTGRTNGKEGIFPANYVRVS

T8: Pex13, P80667
T8 sequence (P80667 295-386, looked up): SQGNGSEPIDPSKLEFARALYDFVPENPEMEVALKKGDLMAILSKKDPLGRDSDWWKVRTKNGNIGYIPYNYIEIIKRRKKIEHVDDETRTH

T9: Boi2, P39969
T9 sequence (P39969 32-116, looked up): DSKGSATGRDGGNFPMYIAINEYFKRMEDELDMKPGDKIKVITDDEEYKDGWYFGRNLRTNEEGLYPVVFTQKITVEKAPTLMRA

T10: Pin3, Q06449
T10 sequence (Q06449 53-122, looked up): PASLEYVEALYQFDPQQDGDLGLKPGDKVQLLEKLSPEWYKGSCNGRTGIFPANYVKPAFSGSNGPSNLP

T11: Myo5, Q04439
T11 sequence (Q04439 1072-1160, looked up): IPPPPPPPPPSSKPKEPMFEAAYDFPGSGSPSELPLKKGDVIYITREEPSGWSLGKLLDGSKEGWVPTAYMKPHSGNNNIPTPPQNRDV

T12: Bud14, P27637
T12 sequence (P27637 247-328, looked up): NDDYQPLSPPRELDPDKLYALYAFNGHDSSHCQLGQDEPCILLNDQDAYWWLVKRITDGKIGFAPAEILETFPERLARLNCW

T13: Fus1, P11710
T13 sequence (P11710 432-512, looked up): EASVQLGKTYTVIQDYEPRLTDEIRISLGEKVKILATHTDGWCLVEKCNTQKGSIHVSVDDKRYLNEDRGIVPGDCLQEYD

T14: Cdc25, P04821
T14 sequence (P04821 50-136, looked up): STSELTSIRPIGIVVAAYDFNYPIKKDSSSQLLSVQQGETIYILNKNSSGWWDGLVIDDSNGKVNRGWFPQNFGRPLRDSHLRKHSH

T15: Lsb3, P43603
T15 sequence (P43603 385-451, looked up): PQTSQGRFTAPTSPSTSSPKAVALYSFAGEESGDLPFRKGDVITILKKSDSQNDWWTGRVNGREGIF

T16: Cyk3, Q07533
T16 sequence (Q07533 1-83, looked up): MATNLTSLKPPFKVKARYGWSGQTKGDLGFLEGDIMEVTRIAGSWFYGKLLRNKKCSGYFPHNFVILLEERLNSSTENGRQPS

T17: Boi1, P38041
T17 sequence (P38041 1-86, looked up): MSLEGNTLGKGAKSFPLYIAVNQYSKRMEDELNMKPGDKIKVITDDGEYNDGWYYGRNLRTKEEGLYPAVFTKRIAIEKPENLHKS

T18: Lsb1, P53281
T18 sequence (P53281 45-122, looked up): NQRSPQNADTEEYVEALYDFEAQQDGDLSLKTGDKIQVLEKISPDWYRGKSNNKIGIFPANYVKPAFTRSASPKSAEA

T19: Abp1, P15891
T19 sequence (P15891 535-592, looked up): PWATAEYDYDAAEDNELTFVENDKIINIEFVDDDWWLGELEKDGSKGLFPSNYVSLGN

T20: Bzz1-2, P38822
T20 sequence (P38822 568-633, looked up): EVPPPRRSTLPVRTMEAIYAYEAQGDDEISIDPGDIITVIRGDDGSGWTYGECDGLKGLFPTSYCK

T21: Nbp2, Q12163
T21 sequence (Q12163 103-180, looked up): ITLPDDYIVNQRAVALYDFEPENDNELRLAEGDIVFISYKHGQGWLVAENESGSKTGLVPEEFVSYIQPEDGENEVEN


Experiments:
Test in all cases: SPOT array
[1] = molecular target: T1, Hof1, Q05080; conditions: median of control spots 4086
[2] = molecular target: Bem1-2, P29366; conditions: median of control spots 4347
[3] = molecular target: T2, Bzz1-1, P38822; conditions: median of control spots 4446
[4] = molecular target: T3, Hse1, P38753; conditions: median of control spots 1727
[5] = molecular target: Myo3, P36006; conditions: median of control spots 468
[6] = molecular target: T4, Sla1-3, P32790; conditions: median of control spots 5475
[7] = molecular target: Bem1-1, P29366; conditions: median of control spots 4282
[8] = molecular target: T5, Bbc1, P47068; conditions: median of control spots 796
[9] = molecular target: Sho1, P40073; conditions: median of control spots 1148
[10] = molecular target: T6, Sla1-2, P32790; conditions: median of control spots 712
[11] = molecular target: Rvs167, P39743; conditions: median of control spots 2707
[12] = molecular target: T7, Lsb4, P32793; conditions: median of control spots 397
[13] = molecular target: T8, Pex13, P80667; conditions: median of control spots 1341
[14] = molecular target: T9, Boi2, P39969; conditions: median of control spots 1161
[15] = molecular target: T10, Pin3, Q06449; conditions: median of control spots 2171
[16] = molecular target: T11, Myo5, Q04439; conditions: median of control spots 471
[17] = molecular target: T12, Bud14, P27637; conditions: median of control spots 956
[18] = molecular target: T13, Fus1, P11710; conditions: median of control spots 1200
[19] = molecular target: T14, Cdc25, P04821; conditions: median of control spots 969
[20] = molecular target: GST; conditions: median of control spots 978
[21] = molecular target: T15, Lsb3, P43603; conditions: median of control spots 406
[22] = molecular target: T16, Cyk3, Q07533; conditions: median of control spots 1451
[23] = molecular target: T17, Boi1, P38041; conditions: median of control spots 1162
[24] = molecular target: T18, Lsb1, P53281; conditions: median of control spots 388
[25] = molecular target: T19, Abp1, P15891; conditions: median of control spots 935
[26] = molecular target: T20, Bzz1-2, P38822; conditions: median of control spots 4538
[27] = molecular target: T21, Nbp2, Q12163; conditions: median of control spots 357

Sho1, P40073, sequence (P40073 287-367): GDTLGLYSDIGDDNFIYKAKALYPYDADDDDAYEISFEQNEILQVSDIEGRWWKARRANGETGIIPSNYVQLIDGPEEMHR
Bem1-1, P29366, sequence (P29366 55-141): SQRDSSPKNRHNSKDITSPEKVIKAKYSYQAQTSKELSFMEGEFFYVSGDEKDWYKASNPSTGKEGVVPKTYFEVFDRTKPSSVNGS
Bem1-2, P29366, sequence (P29366 139-227): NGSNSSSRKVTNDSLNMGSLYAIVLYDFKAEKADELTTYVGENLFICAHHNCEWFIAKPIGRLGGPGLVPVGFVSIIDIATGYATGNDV
Rvs167, P39743, sequence (P39743 419-482): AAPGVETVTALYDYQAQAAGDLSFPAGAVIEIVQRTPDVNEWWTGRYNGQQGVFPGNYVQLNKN

Row | Binder | SPOT intensity [1] | SPOT intensity [2] | SPOT intensity [3] | SPOT intensity [4] | SPOT intensity [5] | SPOT intensity [6] | SPOT intensity [7] | SPOT intensity [8] | SPOT intensity [9] | SPOT intensity [10] | SPOT intensity [11] | SPOT intensity [12] | SPOT intensity [13] | SPOT intensity [14] | SPOT intensity [15] | SPOT intensity [16] | SPOT intensity [17] | SPOT intensity [18] | SPOT intensity [19] | SPOT intensity [20] | other results
1 | KIRRSSLMIPNPQQF | 0 | 3 | 1 | 1 | 35 | 9 | 0 | 13 | 47 | 4 | 0 | 3 | 30 | 1 | 142 | 11 | 5 | 21 | 12 | 3 | SPOT intensity [21]: 14; SPOT intensity [22]: 2; SPOT intensity [23]: 2; SPOT intensity [24]: 12; SPOT intensity [25]: 105; SPOT intensity [26]: 0; SPOT intensity [27]: 0
2 | RVTRKRPREPKSTND | 3 | 0 | 0 | 12 | 19 | 47 | 2 | 217 | 173 | 2 | 0 | 10 | 0 | 2 | 3 | 3 | 9 | 34 | 28 | 2 | SPOT intensity [21]: 5; SPOT intensity [22]: 4; SPOT intensity [23]: 10; SPOT intensity [24]: 9; SPOT intensity [25]: 167; SPOT intensity [26]: 11; SPOT intensity [27]: 40
3 | IKTRSVPKIPSIESV | 38 | 0 | 2 | 0 | 5 | 6 | 3 | 10 | 4 | 1 | 1340 | 166 | 32 | 1 | 15 | 0 | 2 | 0 | 2 | 0 | SPOT intensity [21]: 257; SPOT intensity [22]: 0; SPOT intensity [23]: 1; SPOT intensity [24]: 266; SPOT intensity [25]: 9; SPOT intensity [26]: 2; SPOT intensity [27]: 12

Further lines, with some results ahead:

Row | SPOT intensity [1] | SPOT intensity [2] | SPOT intensity [3] | SPOT intensity [4] | SPOT intensity [5] | SPOT intensity [6] | SPOT intensity [7] | SPOT intensity [8] | SPOT intensity [9] | SPOT intensity [10] | SPOT intensity [11] | SPOT intensity [12] | SPOT intensity [13] | SPOT intensity [14] | SPOT intensity [15] | SPOT intensity [16] | SPOT intensity [17] | SPOT intensity [18] | SPOT intensity [19] | SPOT intensity [20] | Binder | other results
4 | 0 | 0 | 0 | 0 | 3 | 0 | 0 | 1 | 35 | 0 | 2 | 4 | 3 | 1 | 2 | 1 | 14 | 16 | 20 | 0 | HVRRSILALPLGVLL | SPOT intensity [21]: 0; SPOT intensity [22]: 2; SPOT intensity [23]: 3; SPOT intensity [24]: 47; SPOT intensity [25]: 23; SPOT intensity [26]: 0; SPOT intensity [27]: 0
5 | 6 | 800 | 52 | 76 | 35 | 155 | 0 | 68 | 90 | 0 | 4 | 26 | 27 | 0 | 26 | 4 | 10 | 13 | 43 | 0 | FIRKRAPTPPAPSRS | SPOT intensity [21]: 18; SPOT intensity [22]: 2; SPOT intensity [23]: 3; SPOT intensity [24]: 1190; SPOT intensity [25]: 259; SPOT intensity [26]: 522; SPOT intensity [27]: 219
6 | 3 | 3 | 0 | 1 | 0 | 18 | 0 | 0 | 1 | 0 | 0 | 1 | 10 | 0 | 32 | 0 | 0 | 2 | 1 | 0 | WTQRRGPLVVYAEDN | SPOT intensity [21]: 0; SPOT intensity [22]: 0; SPOT intensity [23]: 1; SPOT intensity [24]: 0; SPOT intensity [25]: 0; SPOT intensity [26]: 0; SPOT intensity [27]: 0
